Assay results from patent US20250262210A1 (TRUSTEES OF COLUMBIA UNIVERSITY IN THE CITY OF NEW YORK, published 2025).

Columns and labels:
AXL [1] = molecular target: T1, AXL (human, UniProt P30530 26-894, limits assumed); experiment: IP/MS, U87 cells (summary of Example 1)
Method: (§1) Lysates were immunoprecipitated with FLAG affinity matrix and eluted with FLAG peptide. […] Protein gel slices were excised and in-gel digestion performed as previously described (83), with minor modifications. Gel slices were washed with 1:1 A cetonitrile and 100 mM ammonium bicarbonate for 30 min then dehydrated with 100% acetonitrile for 10 min until shrunk. The excess acetonitrile was then removed and the slices dried in speed-vacuum at room temperature for 10 min. Gel slices were reduced with 5 mM DTT for 30 min at 56° C. in an air thermostat, cooled down to room temperature, and alkylated with 11 mM IAA for 30 min with no light. Gel slices were then washed with 100 mM of ammonium bicarbonate and 100% acetonitrile for 10 min each. Excess acetonitrile was removed and dried in a speed-vacuum for 10 min at room temperature and the gel slices were re-hydrated in a solution of 25 ng/μl trypsin in 50 mM ammonium bicarbonate for 30 min on ice and digested overnight at 37° C. in an air thermostat. Digested peptides were collected and further extracted from gel slices in extraction buffer (1:2 ratio by volume of 5% formic acid:acetonitrile) at high speed, shaking in an air thermostat. […] The following modifications were used for protein identification and quantification: oxidation of methionine (M), acetylation of the protein N-terminus, and deamination for asparagine or glutamine (NQ).

EGFR = molecular target: T2, EGFR (human, UniProt P00533 25-1210); experiment: IP/MS, U87 cells (summary of Example 1)
T2 construct: also called epidermal growth factor receptor
Method: as §1

AXL [2] = molecular target: T1, AXL; experiment: IP/MS, LZTR1 R810W-FLAG, U87; spectral counts >2-fold against wild type
Method: as §1, with “(NQ). […]” for “(NQ).”

ASXL1 = ASXL1 (human, UniProt Q8IXJ9 1-1541, limits assumed); experiment: IP/MS, LZTR1 R810W-FLAG, U87
Procedure, shortened: (§2)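 Extracted peptides in 3% acetonitrile/0.1% formic acid ran on a 50 cm C18 column into an Orbitrap Fusion, with MaxQuant identification and spectral counting.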

DMXL2 = DMXL2 (human, UniProt Q8TDJ6 1-3036, limits assumed); experiment: IP/MS, LZTR1 R810W-FLAG, U87
Procedure, shortened: as §2

MAP4K4 = MAP4K4 (human, UniProt O95819 2-1239, limits assumed); experiment: IP/MS, LZTR1 R810W-FLAG, U87
Procedure, shortened: as §2

KIAA1468 = molecular target: T3, KIAA1468 (human, UniProt Q9P260 2-1216, limits assumed); experiment: IP/MS, LZTR1 R810W-FLAG, U87
T3 sequence (looked up): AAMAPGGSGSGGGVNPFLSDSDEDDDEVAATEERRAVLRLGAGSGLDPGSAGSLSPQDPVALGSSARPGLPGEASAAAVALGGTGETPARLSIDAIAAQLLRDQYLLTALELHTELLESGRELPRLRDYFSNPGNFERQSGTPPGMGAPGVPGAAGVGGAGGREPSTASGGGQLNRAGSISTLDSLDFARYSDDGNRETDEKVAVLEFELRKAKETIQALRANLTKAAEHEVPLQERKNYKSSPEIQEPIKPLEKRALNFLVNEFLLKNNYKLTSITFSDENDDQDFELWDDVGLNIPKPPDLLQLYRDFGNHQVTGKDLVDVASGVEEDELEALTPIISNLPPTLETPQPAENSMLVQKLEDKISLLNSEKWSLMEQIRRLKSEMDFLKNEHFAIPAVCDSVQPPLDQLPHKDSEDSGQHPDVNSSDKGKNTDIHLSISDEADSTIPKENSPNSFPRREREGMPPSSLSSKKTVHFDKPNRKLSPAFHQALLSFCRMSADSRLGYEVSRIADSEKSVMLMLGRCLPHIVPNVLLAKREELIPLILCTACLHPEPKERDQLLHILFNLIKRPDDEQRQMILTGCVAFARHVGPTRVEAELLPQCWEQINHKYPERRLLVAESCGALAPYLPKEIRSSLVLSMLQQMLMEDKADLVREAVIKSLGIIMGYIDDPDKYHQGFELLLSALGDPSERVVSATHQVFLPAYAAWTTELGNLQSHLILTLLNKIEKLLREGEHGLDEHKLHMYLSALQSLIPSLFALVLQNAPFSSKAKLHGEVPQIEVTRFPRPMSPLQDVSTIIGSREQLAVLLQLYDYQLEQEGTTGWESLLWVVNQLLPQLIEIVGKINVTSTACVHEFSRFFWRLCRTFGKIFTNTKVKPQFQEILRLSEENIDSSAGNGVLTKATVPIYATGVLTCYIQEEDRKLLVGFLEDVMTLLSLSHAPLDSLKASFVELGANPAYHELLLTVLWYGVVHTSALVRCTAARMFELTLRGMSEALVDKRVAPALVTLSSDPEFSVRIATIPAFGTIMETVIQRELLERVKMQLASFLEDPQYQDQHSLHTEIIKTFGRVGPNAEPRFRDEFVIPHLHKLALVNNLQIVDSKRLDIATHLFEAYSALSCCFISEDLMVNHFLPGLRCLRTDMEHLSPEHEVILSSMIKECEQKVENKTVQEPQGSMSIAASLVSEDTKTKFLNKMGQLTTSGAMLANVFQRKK
Procedure, shortened: as §2

Measured: binding result

Chain of MAP4K4 (O95819 2-1239 limits assumed): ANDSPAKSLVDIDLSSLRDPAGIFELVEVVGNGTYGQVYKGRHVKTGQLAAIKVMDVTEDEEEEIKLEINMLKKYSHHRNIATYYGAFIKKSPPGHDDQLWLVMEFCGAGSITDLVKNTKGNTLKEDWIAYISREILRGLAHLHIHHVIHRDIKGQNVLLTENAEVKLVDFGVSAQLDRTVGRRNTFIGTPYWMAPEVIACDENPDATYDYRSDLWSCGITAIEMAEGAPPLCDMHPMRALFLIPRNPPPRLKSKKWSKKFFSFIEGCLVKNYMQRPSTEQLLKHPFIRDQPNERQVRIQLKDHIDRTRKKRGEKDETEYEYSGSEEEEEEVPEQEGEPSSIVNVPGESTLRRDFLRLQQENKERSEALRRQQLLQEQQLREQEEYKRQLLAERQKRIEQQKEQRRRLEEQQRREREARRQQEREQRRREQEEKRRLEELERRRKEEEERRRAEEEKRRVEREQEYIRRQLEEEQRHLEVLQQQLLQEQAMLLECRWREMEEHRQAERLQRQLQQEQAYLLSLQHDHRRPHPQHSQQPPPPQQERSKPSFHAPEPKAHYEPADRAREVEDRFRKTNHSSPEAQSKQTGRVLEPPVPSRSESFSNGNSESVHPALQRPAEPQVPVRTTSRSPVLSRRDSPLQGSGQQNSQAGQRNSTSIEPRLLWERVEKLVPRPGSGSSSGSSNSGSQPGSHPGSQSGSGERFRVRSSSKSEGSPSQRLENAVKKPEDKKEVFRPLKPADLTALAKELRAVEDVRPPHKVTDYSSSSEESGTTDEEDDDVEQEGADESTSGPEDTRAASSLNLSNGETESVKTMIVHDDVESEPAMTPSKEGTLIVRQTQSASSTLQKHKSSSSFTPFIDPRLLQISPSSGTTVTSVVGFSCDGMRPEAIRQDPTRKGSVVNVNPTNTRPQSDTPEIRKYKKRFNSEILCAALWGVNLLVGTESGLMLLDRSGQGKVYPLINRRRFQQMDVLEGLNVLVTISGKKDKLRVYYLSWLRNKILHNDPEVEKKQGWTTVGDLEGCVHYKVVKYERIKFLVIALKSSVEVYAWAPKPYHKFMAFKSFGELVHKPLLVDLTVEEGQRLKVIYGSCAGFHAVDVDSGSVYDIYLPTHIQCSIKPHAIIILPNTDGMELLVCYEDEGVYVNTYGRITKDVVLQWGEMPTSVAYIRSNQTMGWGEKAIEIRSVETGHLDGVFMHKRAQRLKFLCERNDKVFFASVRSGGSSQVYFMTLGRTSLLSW
Chain of ASXL1 (Q8IXJ9 whole entry, the tested form may be a part): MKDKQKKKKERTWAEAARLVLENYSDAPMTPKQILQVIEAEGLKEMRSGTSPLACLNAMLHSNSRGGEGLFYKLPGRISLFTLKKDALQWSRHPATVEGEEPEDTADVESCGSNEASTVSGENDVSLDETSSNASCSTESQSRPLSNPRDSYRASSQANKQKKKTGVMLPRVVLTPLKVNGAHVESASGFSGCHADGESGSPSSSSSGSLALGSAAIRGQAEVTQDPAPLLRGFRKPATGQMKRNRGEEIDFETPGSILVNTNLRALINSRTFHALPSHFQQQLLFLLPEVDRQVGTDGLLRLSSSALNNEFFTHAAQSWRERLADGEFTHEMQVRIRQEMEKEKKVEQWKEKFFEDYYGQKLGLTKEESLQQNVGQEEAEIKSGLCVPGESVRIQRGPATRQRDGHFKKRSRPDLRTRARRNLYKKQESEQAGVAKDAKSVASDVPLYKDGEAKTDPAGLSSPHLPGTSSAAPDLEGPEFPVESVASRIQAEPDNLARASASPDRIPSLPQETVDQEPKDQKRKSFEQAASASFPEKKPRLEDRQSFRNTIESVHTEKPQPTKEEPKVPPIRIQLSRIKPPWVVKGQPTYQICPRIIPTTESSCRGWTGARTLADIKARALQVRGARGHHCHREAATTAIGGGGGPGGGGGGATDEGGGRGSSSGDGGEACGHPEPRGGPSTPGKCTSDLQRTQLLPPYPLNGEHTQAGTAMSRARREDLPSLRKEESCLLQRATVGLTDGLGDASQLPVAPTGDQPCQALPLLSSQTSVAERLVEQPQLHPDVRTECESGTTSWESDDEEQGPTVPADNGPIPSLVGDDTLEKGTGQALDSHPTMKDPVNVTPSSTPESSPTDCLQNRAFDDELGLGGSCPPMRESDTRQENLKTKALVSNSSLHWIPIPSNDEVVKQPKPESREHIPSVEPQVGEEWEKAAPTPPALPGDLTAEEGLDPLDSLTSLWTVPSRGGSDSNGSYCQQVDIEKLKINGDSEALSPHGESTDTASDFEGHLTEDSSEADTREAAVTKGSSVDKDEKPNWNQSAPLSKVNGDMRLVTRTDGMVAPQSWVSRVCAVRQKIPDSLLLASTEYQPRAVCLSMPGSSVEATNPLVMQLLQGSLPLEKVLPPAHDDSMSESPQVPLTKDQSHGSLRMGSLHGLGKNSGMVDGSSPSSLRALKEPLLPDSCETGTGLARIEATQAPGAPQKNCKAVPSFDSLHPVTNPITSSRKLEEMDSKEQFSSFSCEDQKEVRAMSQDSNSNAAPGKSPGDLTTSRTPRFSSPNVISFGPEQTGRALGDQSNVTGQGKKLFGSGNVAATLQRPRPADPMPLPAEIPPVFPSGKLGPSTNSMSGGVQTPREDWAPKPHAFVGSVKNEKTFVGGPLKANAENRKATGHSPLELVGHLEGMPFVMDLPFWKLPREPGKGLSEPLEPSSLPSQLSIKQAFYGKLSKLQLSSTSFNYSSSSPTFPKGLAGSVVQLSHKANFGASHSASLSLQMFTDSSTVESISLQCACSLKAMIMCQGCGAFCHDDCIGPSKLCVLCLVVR

B1: LZTR1-FLAG (other, human, UniProt Q8N653 1-840, looked up)
chain: MAGPGSTGGQIGAAALAGGARSKVAPSVDFDHSCSDSVEYLTLNFGPFETVHRWRRLPPCDEFVGARRSKHTVVAYKDAIYVFGGDNGKTMLNDLLRFDVKDCSWCRAFTTGTPPAPRYHHSAVVYGSSMFVFGGYTGDIYSNSNLKNKNDLFEYKFATGQWTEWKIEGRLPVARSAHGATVYSDKLWIFAGYDGNARLNDMWTIGLQDRELTCWEEVAQSGEIPPSCCNFPVAVCRDKMFVFSGQSGAKITNNLFQFEFKDKTWTRIPTEHLLRGSPPPPQRRYGHTMVAFDRHLYVFGGAADNTLPNELHCYDVDFQTWEVVQPSSDSEVGGAEVPERACASEEVPTLTYEERVGFKKSRDVFGLDFGTTSAKQPTQPASELPSGRLFHAAAVISDAMYIFGGTVDNNIRSGEMYRFQFSCYPKCTLHEDYGRLWESRQFCDVEFVLGEKEECVQGHVAIVTARSRWLRRKITQARERLAQKLEQEAAPVPREAPGVAAGGARPPLLHVAIREAEARPFEVLMQFLYTDKIKYPRKGHVEDVLLIMDVYKLALSFQLCRLEQLCRQYIEASVDLQNVLVVCESAARLQLSQLKEHCLNFVVKESHFNQVIMMKEFERLSSPLIVEIVRRKQQPPPRTPLDQPVDIGTSLIQDMKAYLEGAGAEFCDITLLLDGHPRPAHKAILAARSSYFEAMFRSFMPEDGQVNISIGEMVPSRQAFESMLRYIYYGEVNMPPEDSLYLFAAPYYYGFYNNRLQAYCKQNLEMNVTVQNVLQILEAADKTQALDMKRHCLHIIVHQFTKVSKLPTLRSLSQQLLLDIIDSLASHISDKQCAELGADI
notes: Expressed in HEK 293T, HeLa or U87 cells; used as cell lysate; also called LZTR1 wild type-FLAG; LZTR1 WT; not shown: FLAG tag at the C-terminus
binds: AXL [1] | EGFR

B2: LZTR1 R810W-FLAG (other, human, UniProt Q8N653 1-840, looked up)
chain: MAGPGSTGGQIGAAALAGGARSKVAPSVDFDHSCSDSVEYLTLNFGPFETVHRWRRLPPCDEFVGARRSKHTVVAYKDAIYVFGGDNGKTMLNDLLRFDVKDCSWCRAFTTGTPPAPRYHHSAVVYGSSMFVFGGYTGDIYSNSNLKNKNDLFEYKFATGQWTEWKIEGRLPVARSAHGATVYSDKLWIFAGYDGNARLNDMWTIGLQDRELTCWEEVAQSGEIPPSCCNFPVAVCRDKMFVFSGQSGAKITNNLFQFEFKDKTWTRIPTEHLLRGSPPPPQRRYGHTMVAFDRHLYVFGGAADNTLPNELHCYDVDFQTWEVVQPSSDSEVGGAEVPERACASEEVPTLTYEERVGFKKSRDVFGLDFGTTSAKQPTQPASELPSGRLFHAAAVISDAMYIFGGTVDNNIRSGEMYRFQFSCYPKCTLHEDYGRLWESRQFCDVEFVLGEKEECVQGHVAIVTARSRWLRRKITQARERLAQKLEQEAAPVPREAPGVAAGGARPPLLHVAIREAEARPFEVLMQFLYTDKIKYPRKGHVEDVLLIMDVYKLALSFQLCRLEQLCRQYIEASVDLQNVLVVCESAARLQLSQLKEHCLNFVVKESHFNQVIMMKEFERLSSPLIVEIVRRKQQPPPRTPLDQPVDIGTSLIQDMKAYLEGAGAEFCDITLLLDGHPRPAHKAILAARSSYFEAMFRSFMPEDGQVNISIGEMVPSRQAFESMLRYIYYGEVNMPPEDSLYLFAAPYYYGFYNNRLQAYCKQNLEMNVTVQNVLQILEAADKTQALDMKRHCLHIIVHQFTKVSKLPTLWSLSQQLLLDIIDSLASHISDKQCAELGADI
notes: Stably expressed in U87 cells by lentivirus; also called LZTR1-FLAG-R810W; LZTR1 RW; not shown: FLAG tag
binds: AXL [2] | ASXL1 | DMXL2 | MAP4K4 | KIAA1468
